pKd: −log10 of the molar value.
Tests used:
[1] = target: mono HSG peptide (peptide containing a single HSG substituent and a thiol); assay: BIAcore, mono HSG peptide coupled by its thiol to a CM-5 chip
[2] = target: Ac-Lys(DTPA)-Tyr-Lys(DTPA)-Lys(Tscg-Cys)-NH2 (IMP 192); assay: in vivo, GW-39 tumor in nude mice, calculated from biodistribution assuming one peptide per bsAb; 24 h after peptide
[3] = target: Ac-Lys(DTPA)-Tyr-Lys(DTPA)-Lys(Tscg-Cys)-NH2 (IMP 192); assay: in vivo, GW-39 tumor in nude mice, calculated from biodistribution assuming one peptide per bsAb; 3 h after peptide
[4] = target: carcinoembryonic antigen (CEA) (UniProt P06731); assay: analytical size exclusion HPLC, radioiodinated bsAb with 10-20× molar excess of CEA
carcinoembryonic antigen (CEA), sequence (P06731 35-685 limits assumed): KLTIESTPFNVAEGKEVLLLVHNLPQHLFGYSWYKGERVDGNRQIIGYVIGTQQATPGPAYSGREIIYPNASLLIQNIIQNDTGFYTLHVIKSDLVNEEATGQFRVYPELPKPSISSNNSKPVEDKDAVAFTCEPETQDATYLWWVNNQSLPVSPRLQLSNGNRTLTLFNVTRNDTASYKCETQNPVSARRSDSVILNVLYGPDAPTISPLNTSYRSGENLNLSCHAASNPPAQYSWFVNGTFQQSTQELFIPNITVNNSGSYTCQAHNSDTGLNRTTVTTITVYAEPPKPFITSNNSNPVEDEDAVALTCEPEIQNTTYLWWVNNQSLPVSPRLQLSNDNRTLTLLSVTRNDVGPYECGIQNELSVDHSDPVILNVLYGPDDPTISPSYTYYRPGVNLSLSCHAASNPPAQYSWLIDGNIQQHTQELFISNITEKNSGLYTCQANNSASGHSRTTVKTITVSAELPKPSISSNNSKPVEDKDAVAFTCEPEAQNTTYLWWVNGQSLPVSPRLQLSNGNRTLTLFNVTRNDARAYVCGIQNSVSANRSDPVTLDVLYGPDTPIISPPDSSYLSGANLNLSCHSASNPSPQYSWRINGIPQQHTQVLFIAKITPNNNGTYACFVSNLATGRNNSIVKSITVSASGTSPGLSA

[5] = target: Ac-Lys(DTPA)-Tyr-Lys(DTPA)-Lys(Tscg-Cys)-NH2 (IMP 192); assay: in vivo, GW-39 tumor in nude mice, calculated from biodistribution assuming one peptide per bsAb; 30 min after peptide
[6] = target: Ac-Lys(DTPA)-Tyr-Lys(DTPA)-Lys(Tscg-Cys)-NH2 (IMP 192); assay: in vivo, GW-39 tumor in nude mice, calculated from biodistribution assuming one peptide per bsAb; 1 h after peptide

hMN-14 × m679 F(ab′)2 bsMAb (bispecific antibody)
pKd [1]: 8.82

hMN-14 × 734 (Fab × Fab) bsAb (bispecific antibody)
% saturation on hMN-14 × 734 (available DTPA binding sites on the tumor bound bsAb filled with 99m-Tc-IMP-192) [2]: 28% | % saturation on hMN-14 × 734 (available DTPA binding sites on the tumor bound bsAb filled with 99m-Tc-IMP-192) [3]: 25% | percent of bsAb bound [4]: 90% | % saturation on hMN-14 × 734 (available DTPA binding sites on the tumor bound bsAb filled with 99m-Tc-IMP-192) [5]: 25.4% | % saturation on hMN-14 × 734 (available DTPA binding sites on the tumor bound bsAb filled with 99m-Tc-IMP-192) [6]: 25.8%
